Assay results as given in article PMC10882135, “Rapid reaction studies on the chemistry of flavin oxidation in urocanate reductase” (The Journal of Biological Chemistry, 2024).

Columns and labels:
Arg411 = Arg411 (UniProt position 411, EELERRDVISH); assay: kinetics (anaerobic stopped-flow spectrophotometry); conditions: 4 °C, 100 mM NaCl, 50 mM Bis-Tris propane (pH 6-9) or 50 mM CAPS (pH >9), 10% glycerol, reduced FAD (flavin hydroquinone) enzyme in complex with urocanate, folded (unfolding above pH 10.5 by CD)
[1] = target: T1, UrdA′ (isolated FAD domain of urocanate reductase) (Shewanella oneidensis, UniProt Q8CVD0); assay: copurification; absorbance spectrum before and after SDS/heat release of FAD; format: binding; conditions: noncovalent; pH 7
T1 construct: N-terminal FMN domain removed), C-terminal His tag, pET29b, E. coli BL21 (DE3); noncovalent FAD
T1 sequence (Q8CVD0 130-582): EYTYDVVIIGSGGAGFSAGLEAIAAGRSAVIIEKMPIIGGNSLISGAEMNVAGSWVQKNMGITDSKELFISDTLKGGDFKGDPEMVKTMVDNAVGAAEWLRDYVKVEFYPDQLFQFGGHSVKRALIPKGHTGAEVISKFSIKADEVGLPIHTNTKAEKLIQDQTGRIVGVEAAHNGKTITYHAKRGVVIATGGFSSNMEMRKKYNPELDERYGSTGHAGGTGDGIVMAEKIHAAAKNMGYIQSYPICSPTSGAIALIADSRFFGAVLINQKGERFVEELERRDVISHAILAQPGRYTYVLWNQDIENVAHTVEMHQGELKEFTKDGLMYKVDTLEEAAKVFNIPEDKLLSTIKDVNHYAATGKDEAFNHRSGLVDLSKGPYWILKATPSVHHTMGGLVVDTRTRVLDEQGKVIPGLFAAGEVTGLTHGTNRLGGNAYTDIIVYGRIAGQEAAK

Molecule | pKa (Arg411) | copurification; absorbance spectrum before and after SDS/heat release of FAD [1]
Urocanate reductase, isolated FAD-binding C-terminal domain (UrdA') (Shewanella oneidensis MR-1) | 9.4 ± 0.1 | –
Cc1cc2nc3c(=O)[nH]c(=O)nc-3n(C[C@H](O)[C@H](O)[C@H](O)COP(=O)(O)OP(=O)(O)OC[C@H]3O[C@@H](n4cnc5c(N)ncnc54)[C@H](O)[C@@H]3O)c2cc1C [FAD] | – | extinction coefficient of FAD bound to the variants was then calculated
